B1: SIKE1 (recombinant, limits not stated) [human] / SLMAP (recombinant, limits not stated for the experiment) [human] (parent complex)
chain 1: MSCTIEKILTDAKTLLERLREHDAAAESLVDQSAALHRRVAAMREAGTALPDQYQEDASDMKDMSKYKPHILLSQENTQIRDLQQENRELWISLEEHQDALELIMSKYRKQMLQLMVAKKAVDAEPVLKAHQSHSAEIESQIDRICEMGEVMRKAVQVDDDQFCKIQEKLAQLELENKELRELLSISSESLQARKENSMDTASQAIK
chain 2: YSQELFQLSQYLQEALHREQMLEQKLATLQRLLAITQEASDTSWQALIDEDRLLSRLEVMGNQLQACSKNQTEDSLRKELIALQEDKHNYETTAKESLRRVLQEKIEVVRKLSEVERSLSNTEDECTHLKEMNERTQEELRELANKYNGAVNEIKDLSDKLKVAEGKQEEIQQKGQAEKKELQHKIDEMEEKEQELQAKIEALQADNDFTNERLTALQVRLEHLQEKTLKECSSLEHLLSKSGGDCTFIHQFIECQKKLIVEGHLTKAVEETKLSKENQTRAKESDFSDTLSPSKEKSSDDTTDAQMDEQDLNEPLAKVSLLKDDLQGAQSEIEAKQEIQHLRKELIEAQELARTSKQKCFELQALLEEERKAYRNQVEESTKQIQVLQAQLQRLHIDTENLREEKDSEITSTRDELLSARDEILLLHQAAAKVASERDTDIASLQEELKKVRAELERWRKAASEYEKEITSLQNSFQLRCQQCEDQQREEATRLQGELEKLRKEWNALETECHSLKRENVLLSSELQRQEKELHNSQKQSLELTSDLSILQMSRKELENQVGSLKEQHLRDSADLKTLLSKAENQAKDVQKEYEKTQTVLSELKLKFEMTEQEKQSITDELKQCKNNLKLLREKGNNKP

Variants of: B1
Experiment: BLI; read at the end of association (about 360 s); parent: 0.13; read off a plot
A response of ~0 nm was found for chain 1 L36D in this work.
A response of ~0.02 nm was found for chain 1 L15D, chain 1 L19D, chain 1 L36D, chain 1 M43E in this work.
A response of ~0.045 nm was found for chain 1 L19D in this work.
A response of ~0.045 nm was found for chain 1 L15D in this work.
A response of ~0.05 nm was found for chain 1 M43E in this work.

Reference: paper PMC6323126 (2019)
